Laboratory results from paper PMC3565348, “Modeling of Anopheles minimus Mosquito NADPH-Cytochrome P450 Oxidoreductase (CYPOR) and Mutagenesis Analysis” (International Journal of Molecular Sciences, 2013).

Columns and labels:
[1] = molecular target: T1, Δ55AnCYPOR (Anopheles minimus, UniProt A4ZIT2); assay: flavin content of purified protein, fluorometric; format: binding; settings: co-purified flavin; no affinity constant
T1 construct: soluble form lacking the N-terminal membrane region (Δ55), pET28a vector, expressed in E. coli BL21 (DE3), purified
T1 sequence (A4ZIT2 56-679): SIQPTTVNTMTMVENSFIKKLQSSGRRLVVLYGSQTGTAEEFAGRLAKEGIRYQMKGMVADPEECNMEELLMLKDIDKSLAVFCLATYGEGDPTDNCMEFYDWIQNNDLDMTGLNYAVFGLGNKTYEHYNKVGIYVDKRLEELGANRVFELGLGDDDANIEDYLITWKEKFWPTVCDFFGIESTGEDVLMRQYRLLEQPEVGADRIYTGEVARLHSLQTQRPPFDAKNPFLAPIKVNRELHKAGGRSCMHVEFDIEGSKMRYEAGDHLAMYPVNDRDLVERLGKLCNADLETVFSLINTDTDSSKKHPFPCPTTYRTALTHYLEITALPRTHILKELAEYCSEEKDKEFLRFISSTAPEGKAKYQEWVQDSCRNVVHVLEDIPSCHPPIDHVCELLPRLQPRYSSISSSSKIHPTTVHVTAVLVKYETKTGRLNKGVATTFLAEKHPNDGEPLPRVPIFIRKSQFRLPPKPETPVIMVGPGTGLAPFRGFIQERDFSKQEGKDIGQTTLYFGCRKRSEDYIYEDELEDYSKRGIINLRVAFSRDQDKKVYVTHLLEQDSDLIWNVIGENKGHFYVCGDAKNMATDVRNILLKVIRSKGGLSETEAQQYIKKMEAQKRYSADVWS
Excerpt: flavin content of purified protein, fluorometric on Δ55AnCYPOR

[2] = test system: NC(=O)C1=CN([C@@H]2O[C@H](COP(=O)(O)OP(=O)(O)OC[C@H]3O[C@@H](n4cnc5c(N)ncnc54)[C@H](OP(=O)(O)O)[C@@H]3O)[C@@H](O)[C@H]2O)C=CC1; assay: purified protein; format: biochemical, Anopheles minimus; settings: 0.1 M Tris-Cl pH 7.5, 25 °C, co-substrate cytochrome c, extra flavins added
[3] = test system: T2, CYP6AA3 reconstituted with flAnCYPOR; assay: benzyloxyresorufin O-dealkylation, fluorescence of resorufin, microsomes + purified CYPOR; format: biochemical, Anopheles minimus; settings: 50 mM Tris-HCl pH 7.5; wild-type flAnCYPOR; apparent Km; read-out: CYP3AA3-mediated BROD activity (pmole resorufin produced/min/pmol P450) ^a / Km
T2 construct: CYP6AA3 in Sf9 baculovirus microsomes; with NADPH--cytochrome P450 reductase

[4] = test system: T3, CYP6AA3 reconstituted with rat CYPOR; assay: as above; format: biochemical, Anopheles minimus; settings: 50 mM Tris-HCl pH 7.5; rat CYPOR as redox partner; apparent Km; read-out: CYP3AA3-mediated BROD activity (pmole resorufin produced/min/pmol P450) ^a / Km
T3 construct: CYP6AA3 in Sf9 baculovirus microsomes; purified rat CYPOR (pIN-rat CYPOR, E. coli C43 (DE3), Ni-NTA) added, ratio 3:1; with NADPH--cytochrome P450 reductase (Rattus norvegicus)

[5] = substrate: NC(=O)C1=CN([C@@H]2O[C@H](COP(=O)(O)OP(=O)(O)OC[C@H]3O[C@@H](n4cnc5c(N)ncnc54)[C@H](OP(=O)(O)O)[C@@H]3O)[C@@H](O)[C@H]2O)C=CC1; assay: purified protein; settings: 0.1 M Tris-Cl pH 7.5, 25 °C, co-substrate cytochrome c, extra flavins added

In the case of Cc1cc2nc3c(=O)[nH]c(=O)nc-3n(C[C@H](O)[C@H](O)[C@H](O)COP(=O)(O)O)c2cc1C [FMN], the “FMN ^a” value [1] is reported as 0.52 ± 0.01 mol/mol.

With “Δ55AnCYPOR (Anopheles minimus; L219F/L86F/W678A)” the Km [2] was 3.34 ± 0.83 µM.

Work on “Δ55AnCYPOR (Anopheles minimus; C427R/L219F/L86F)” yielded a Km [2] of 7.02 ± 1.75 µM.

“Δ55AnCYPOR (Anopheles minimus; L219F/L86F/W678H)” was tested, and the Km [2] was 1.91 ± 0.44 µM.

O=c1ccc2nc3ccc(OCc4ccccc4)cc3oc-2c1 [benzyloxyresorufin] showed a Km [3] of 1.9 ± 0.61 µM and a Km [4] of 1.69 ± 0.24 µM.

With “Δ55AnCYPOR (Anopheles minimus; L219F/L86F)” the Km [2] was 6.49 ± 1.19 µM.

In the case of Cc1cc2nc3c(=O)[nH]c(=O)nc-3n(C[C@H](O)[C@H](O)[C@H](O)COP(=O)(O)OP(=O)(O)OC[C@H]3O[C@@H](n4cnc5c(N)ncnc54)[C@H](O)[C@@H]3O)c2cc1C [FAD], the “FAD ^a” value [1] is reported as 0.64 ± 0.03 mol/mol.

B1: Δ55AnCYPOR (Anopheles minimus) (protein)
chain: T1 sequence (A4ZIT2 56-679)
Molecule B1 has a Km [5] of 9.61 ± 0.30 µM.
